Experimental data reported in patent US20220089758A1 (REVMAB BIOSCIENCES USA, published 2022).
Positions count from the first letter of the chain named.

B1: APX005M (antibody, V domains shown)
VH: QVQLVESGGGVVQPGRSLRLSCAASGFSFSSTYVCWVRQAPGKGLEWIACIYTGDGTNYSASWAKGRFTISKDSSKNTVYLQMNSLRAEDTAVYFCARPDITYGFAINFWGPGTLVTVSS
VL: DIQMTQSPSSLSASVGDRVTIKCQASQSISSRLAWYQQKPGKPPKLLIYRASTLASGVPSRFSGSGSGTDFTLTISSLQPEDVATYYCQCTGYGISWPIGGGTKVEIK
B2: Antibody clone 5 (antibody, V domains shown)
VH: QSVKESGGGLFKPTDTLTLTCTVSGFSLSSNAISWVRQAPGKGLEWIGIIYASGDTYYASWAKGRFTISKTSSTTVDLKMTSLTTEGTATYFCARGYTTLYFWGPGTLVTVSS
VL: QIVMTQTPASVSAAVGGTVTIKCQASESISTRLAWYQQKPGQPPKLLIYSASTLPSGVPSRFSGSGSGTDFTLTISGVQCDDAATYYCQGGYSSGAGTAFGGGTEVVVK
notes: Rabbit monoclonal antibody; also called 5H2/5L2
B3: Antibody clone 6 (antibody, V domains shown)
VH: QSLEESGGRLVTPGTPLTLTCTASGFDFSRYHMCWVRQAPGKGLEWIGIIYVSDNTYYATWAKGRFTISRTSTTVDLKITSPTTEDTATYFCVRVGSFWSSKLWGPGTLVTVSS
VL: DVVMTQTPASVSEPVGGTVTINCQASENIYSSLAWYQQKPGQPPKLLIYEASNLESGVSSRFSGSGSGTEFTLTISDLECADAATYYCQSTYFGNSYVFAFGGGTEVVVK
notes: Rabbit monoclonal antibody; also called 6H2/6L2
B4: Antibody clone 5-z (antibody, V domains shown)
VH: EVQLVESGGGLVQPGGSLRLSCAASGFSLSSNAISWVRQAPGKGLEWVGIIYASGDTYYASWAKGRFTISRDNSKNTLYLQMNSLRAEDTAVYYCARGYTTLYFWGQGTLVTVSS
VL: DIQMTQSPSSVSASVGDRVTITCQASESISTRLAWYQQKPGKAPKLLIYSASTLPSGVPSRFSGSGSGTDFTLTISSLQPEDFATYYCQGGYSSGAGTAFGGGTKVEIK
notes: Humanized antibody based on clone 5; also called 5H2-z/5L2-z
B5: Antibody clone 6-z (antibody, V domains shown)
VH: EVQLVESGGGLVQPGGSLRLSCAASGFDFSRYHMSWVRQAPGKGLEWVGIIYVSDNTYYATWAKGRFTISRDNSKNTLYLQMNSLRAEDTAVYYCVRVGSFWSSKLWGQGTLVTVSS
VL: DIQMTQSPSTLSASVGDRVTITCQASENIYSSLAWYQQKPGKAPKLLIYEASNLESGVPSRFSGSGSGTEFTLTISSLQPDDFATYYCQSTYFGNSYVFAFGGGTKVEIK
notes: Humanized antibody based on clone 6; also called 6H2-z/6L2-z
B6: Antibody clone 151 (antibody, V domains shown)
VH: QSVEESGGRLVTPGTPLTLTCTVSGFSLSSNAISWVRQAPGKGLEWIGVIDAGGSTYFASWAKGLFTISKTSSTTVDLQMTSLTTEDTATYFCARGWSRHDFWGPGTLVTVSS
VL: DVVMTQTPASVSEPVGGTVTIKCQASQSISNILAWYQQKPGQPPRLLIYSASTLASGVSSRFKASGSGTEFTLTISDLECADAATYYCQGYDSTVGVGAFGGGTEVVVK
notes: Rabbit monoclonal antibody; also called 151H1/151L1
B7: Antibody clone 233 (antibody, V domains shown)
VH: QEQLVESGGGLVQPEGSLTLTCTASGFSFSYYSWACWVRQAPGKGLEWIACIDGGGSRATYYASWAKGRFTISTTSSTTVTLQMTSLTAADTATYFCSRSDYNGYISYFDLWGPGTLVTVSS
VL: AFELTQTPSSVEAAVGGTVTINCQASQSIRSDLAWYQQKPGQPPKLLIYKASTLASGVPSRFRGSGSGTEYTLTISDLECADAATYYCQSYYHSSSTAFGGGTEVVVK
notes: Rabbit monoclonal antibody; also called 233H1/233L1
B8: Antibody clone 166 (antibody, V domains shown)
VH: B3 VH with F28L, C34N, N55D, T56S, T60S, R70K, T74A, V93A, F98V
VL: B3 VL with N22K, S31N, S32N, E50R, N53T, S59P, S63K, N95G
notes: Rabbit monoclonal antibody; also called 166H2/166L1

Biological target: T1, CD40 protein displayed on cell surface (UniProt P25942 21-277, limits assumed)
T1 construct: whole, on cells; One entry for cell-surface full-length CD40 in all cell assays; also called CD40 on HEKBlue CD40L reporter cells; CD40-expressing cell
T1 sequence (P25942 21-277 limits assumed): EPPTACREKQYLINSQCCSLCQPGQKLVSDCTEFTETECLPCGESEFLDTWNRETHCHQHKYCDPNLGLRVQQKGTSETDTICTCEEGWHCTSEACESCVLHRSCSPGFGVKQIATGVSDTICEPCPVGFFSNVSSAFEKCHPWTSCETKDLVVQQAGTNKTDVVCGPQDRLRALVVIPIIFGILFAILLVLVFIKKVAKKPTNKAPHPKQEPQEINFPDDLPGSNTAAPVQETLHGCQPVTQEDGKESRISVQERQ
Experiment: flow cytometry on HEKBlue CD40L reporter cells, fluorescent secondary antibody, median fluorescence
Source text: (§1) HEKBlue CD40L reporter cells were harvested and stained with anti-CD40 and fluorescent secondary antibodies. Antibodies binding are shown in median fluorescence intensity.

Row | Binder | EC50
1 | B1 | 0.123 µg/mL
2 | B2 | 0.0541 µg/mL
3 | B3 | 0.0945 µg/mL

Biological target: T1, CD40 protein displayed on cell surface
Experiment: binding to CD40-expressing cell; method not described

Row | Binder | binding result
4 | B4 | binds
5 | B5 | binds

Biological target: T1, CD40 protein displayed on cell surface
Experiment: flow cytometry on HEKBlue CD40L reporter cells, fluorescent secondary antibody, median fluorescence intensity
Source text: as §1

Row | Binder | EC50
6 | B1 | 0.82 nM
7 | B2 | 0.36 nM
8 | B3 | 0.63 nM

Biological target: T2, recombinant CD40 ECD-Fc fusion protein (UniProt P25942 21-193, limits assumed, biotinylated (site not stated))
T2 construct: extracellular domain; also called biotinylated CD40 ECD-Fc; not shown: Fc
T2 sequence (P25942 21-193 limits assumed): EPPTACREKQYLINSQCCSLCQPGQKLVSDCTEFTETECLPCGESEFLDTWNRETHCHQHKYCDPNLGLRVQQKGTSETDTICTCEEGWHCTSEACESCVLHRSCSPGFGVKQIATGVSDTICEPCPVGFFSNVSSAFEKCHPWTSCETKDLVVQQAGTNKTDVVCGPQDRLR
Experiment: BLI (Octet), biotinylated CD40 ECD-Fc captured on streptavidin probe, antibody in solution
Protocol: Binding affinity to recombinant CD40 ECD-Fc fusion protein were determined using Bio-Layer Interferometry (BLI) on Octet system. Briefly, biotinylated CD40 ECD-Fc were captured by streptavidin probe and the antibody association/dissociation were measured with light interferometry in realtime. KD were then calculated by Kₒₙ and Koff.

Row | Binder | Kd
9 | B1 | 0.041 nM
10 | B6 | 0.084 nM
11 | B2 | 0.00604 nM
12 | B7 | 0.012 nM
13 | B3 | 0.377 nM
14 | B8 | 0.42 nM

Biological target: T1, CD40 protein displayed on cell surface
Experiment: cell-based or functional assay

Row | Binder | EC50 in activating B cell assessed by CD80 expression (CD19+ cells, flow cytometry) | EC50 in activating B cell assessed by CD86 expression (CD19+ cells, flow cytometry) | EC50 in activating MoDC assessed by CD86 expression | EC50 in activating monocyte derived dendritic cell (MoDC) assessed by CD80 expression | EC50 of CD40 activation, SEAP activity (Quanti-Blue, absorbance at 650 nm) of HEKBlue CD40L reporter cells
15 | B1 | 0.41 nM | 0.021 nM | 1.7 nM | 1.6 nM | 10 nM
16 | B2 | 0.0027 nM | 0.0015 nM | 1.3 nM | 0.74 nM | 0.34 nM
17 | B3 | 0.17 nM | 0.14 nM | 22 nM | 29 nM | 8 nM
